# Source: patent US20060263802A1 (CRUCELL HOLLAND B V, published 2006)
# B1: human monoclonal antibody CRJB (antibody, V domains shown)
# VH: QITLKETGPTLVKPTQTLTLTCTFSGFSLSTSGVGVGWIRQPPGKALEWVTLIYWDDDKRYSPSLENRVTIRKDTSKNQVALTMTNMDPLDTGTYYCAHRQHISSFPWFDSWGQGTLVTVSS
# VL: SYVLTQPPSVSVAPGKTARINCGGNNIEYRSVHWYQQKSGQAPVAVIYDNSDRPSGIPERFSGSKSGNTATLTISRVEAGDEADYYCQVWDISSDVVFGGGTKLTVLG
# Key:
# Experiment in all cases: PEPSCAN ELISA, looped 15-mer, 10 ug/ml
# [1] = target: looped peptide … (rabies virus strain ERA)
# [2] = target: looped peptide … (rabies virus strain ERA); remark: listed apart in the source
# [3] = target: looped peptide … (rabies virus strain ERA); remark: listed apart in the source
# [4] = target: looped peptide … (rabies virus strain ERA); remark: listed apart in the source
# [5] = target: looped peptide … (rabies virus strain ERA); remark: listed apart in the source
# [6] = target: looped peptide … (rabies virus strain ERA); remark: listed apart in the source
# [7] = target: looped peptide … (rabies virus strain ERA); remark: listed apart in the source
# [8] = target: looped peptide … (rabies virus strain ERA); remark: listed apart in the source
# [9] = target: looped peptide … (rabies virus strain ERA); remark: listed apart in the source
# [10] = target: looped peptide … (rabies virus strain ERA); remark: listed apart in the source
# [11] = target: looped peptide … (rabies virus strain ERA); remark: listed apart in the source
# [12] = target: looped peptide … (rabies virus strain ERA); remark: listed apart in the source
# [13] = target: looped peptide … (rabies virus strain ERA); remark: listed apart in the source
# [14] = target: looped peptide … (rabies virus strain ERA); remark: listed apart in the source
# [15] = target: looped peptide … (rabies virus strain ERA); remark: listed apart in the source
# [16] = target: looped peptide … (rabies virus strain ERA); remark: listed apart in the source
# [17] = target: looped peptide … (rabies virus strain ERA); remark: listed apart in the source
# [18] = target: looped peptide … (rabies virus strain ERA); remark: listed apart in the source
# [19] = target: looped peptide … (rabies virus strain ERA); remark: listed apart in the source
# [20] = target: looped peptide … (rabies virus strain ERA); remark: listed apart in the source
# [21] = target: looped peptide … (rabies virus strain ERA); remark: listed apart in the source
# [22] = target: looped peptide … (rabies virus strain ERA); remark: listed apart in the source
# [23] = target: looped peptide … (rabies virus strain ERA); remark: listed apart in the source
# [24] = target: looped peptide … (rabies virus strain ERA); remark: listed apart in the source
# [25] = target: looped peptide … (rabies virus strain ERA); remark: listed apart in the source
# [26] = target: looped peptide … (rabies virus strain ERA); remark: listed apart in the source
# [27] = target: looped peptide … (rabies virus strain ERA); remark: listed apart in the source
# [28] = target: looped peptide … (rabies virus strain ERA); remark: listed apart in the source
# [29] = target: looped peptide … (rabies virus strain ERA); remark: listed apart in the source
# [30] = target: looped peptide … (rabies virus strain ERA); remark: listed apart in the source
# [31] = target: looped peptide … (rabies virus strain ERA); remark: listed apart in the source
# [32] = target: looped peptide … (rabies virus strain ERA); remark: listed apart in the source
# [33] = target: looped peptide … (rabies virus strain ERA); remark: listed apart in the source
# [34] = target: looped peptide … (rabies virus strain ERA); remark: listed apart in the source
# [35] = target: looped peptide … (rabies virus strain ERA); remark: listed apart in the source
# [36] = target: looped peptide … (rabies virus strain ERA); remark: listed apart in the source
# [37] = target: looped peptide … (rabies virus strain ERA); remark: listed apart in the source
# [38] = target: looped peptide … (rabies virus strain ERA); remark: listed apart in the source
# [39] = target: looped peptide … (rabies virus strain ERA); remark: listed apart in the source
# [40] = target: looped peptide … (rabies virus strain ERA); remark: listed apart in the source
# [41] = target: looped peptide … (rabies virus strain ERA); remark: listed apart in the source
# [42] = target: looped peptide … (rabies virus strain ERA); remark: listed apart in the source
# [43] = target: looped peptide … (rabies virus strain ERA); remark: listed apart in the source
# [44] = target: looped peptide … (rabies virus strain ERA); remark: listed apart in the source
# [45] = target: looped peptide … (rabies virus strain ERA); remark: listed apart in the source
# [46] = target: looped peptide … (rabies virus strain ERA); remark: listed apart in the source
# [47] = target: looped peptide … (rabies virus strain ERA); remark: listed apart in the source
# [48] = target: looped peptide … (rabies virus strain ERA); remark: listed apart in the source
# [49] = target: looped peptide … (rabies virus strain ERA); remark: listed apart in the source
# [50] = target: looped peptide … (rabies virus strain ERA); remark: listed apart in the source
# [51] = target: looped peptide … (rabies virus strain ERA); remark: listed apart in the source
# [52] = target: looped peptide … (rabies virus strain ERA); remark: listed apart in the source
# [53] = target: looped peptide … (rabies virus strain ERA); remark: listed apart in the source
# [54] = target: looped peptide … (rabies virus strain ERA); remark: listed apart in the source
# [55] = target: looped peptide … (rabies virus strain ERA); remark: listed apart in the source
# [56] = target: looped peptide … (rabies virus strain ERA); remark: listed apart in the source
# [57] = target: looped peptide … (rabies virus strain ERA); remark: listed apart in the source
# [58] = target: looped peptide … (rabies virus strain ERA); remark: listed apart in the source
# [59] = target: looped peptide … (rabies virus strain ERA); remark: listed apart in the source
# [60] = target: looped peptide … (rabies virus strain ERA); remark: listed apart in the source
# [61] = target: looped peptide … (rabies virus strain ERA); remark: listed apart in the source
# [62] = target: looped peptide … (rabies virus strain ERA); remark: listed apart in the source
# [63] = target: looped peptide … (rabies virus strain ERA); remark: listed apart in the source
# [64] = target: looped peptide … (rabies virus strain ERA); remark: listed apart in the source
# [65] = target: looped peptide … (rabies virus strain ERA); remark: listed apart in the source
# [66] = target: looped peptide … (rabies virus strain ERA); remark: listed apart in the source
# [67] = target: looped peptide … (rabies virus strain ERA); remark: listed apart in the source
binder,measurement,setting,value
B1,OD value,[1],89
same,OD value,[2],104
same,OD value,[3],85
same,OD value,[4],112
same,OD value,[5],72
same,OD value,[6],89
same,OD value,[7],25
same,OD value,[8],83
same,OD value,[9],64
same,OD value,[10],62
same,OD value,[11],82
same,OD value,[12],97
same,OD value,[13],85
same,OD value,[14],90
same,OD value,[15],79
same,OD value,[16],90
same,OD value,[17],87
same,OD value,[18],79
same,OD value,[19],65
same,OD value,[20],76
same,OD value,[21],23
same,OD value,[22],89
same,OD value,[23],79
same,OD value,[24],75
same,OD value,[25],85
same,OD value,[26],58
same,OD value,[27],92
same,OD value,[28],71
same,OD value,[29],84
same,OD value,[30],72
same,OD value,[31],106
same,OD value,[32],44
same,OD value,[33],82
same,OD value,[34],89
same,OD value,[35],96
same,OD value,[36],105
same,OD value,[37],82
same,OD value,[38],71
same,OD value,[39],80
same,OD value,[40],74
same,OD value,[41],86
same,OD value,[42],89
same,OD value,[43],77
same,OD value,[44],57
same,OD value,[45],90
same,OD value,[46],82
same,OD value,[47],78
same,OD value,[48],8
same,OD value,[49],76
same,OD value,[50],104
same,OD value,[51],5
same,OD value,[52],99
same,OD value,[53],79
same,OD value,[54],72
same,OD value,[55],82
same,OD value,[56],103
same,OD value,[57],78
same,OD value,[58],79
same,OD value,[59],48
same,OD value,[60],66
same,OD value,[61],68
same,OD value,[62],74
same,OD value,[63],100
same,OD value,[64],83
same,OD value,[65],58
same,OD value,[66],101
same,OD value,[67],79
